{
  "source": "paper PMC10128030",
  "about": "“Molecular Characterization of the ClpC AAA+ ATPase in the Biology of Chlamydia trachomatis” (mBio, 2023)",
  "proteins": {"B1": {"name": "endogenous ClpC of wild-type C. trachomatis serovar L2 (natural protein)", "chain": "not shown", "notes": "ClpC AAA+ ATPase of Chlamydia trachomatis serovar L2; monomer of the expected size 95 kDa; source: endogenous, wild-type Ctr L2 in infected HeLa cells, whole-cell lysate"}},
  "target": "the molecule itself",
  "test": "cross-linking; HeLa cells infected with C. trachomatis L2 (wild type or transformants induced at 16 hpi) treated with 0.25 mM DSS in HBSS pH 7.6 on ice at 4°C for at least 1 h; whole-cell lysates on 8% SDS-PAGE, immunoblot with anti-ClpC (endogenous) or anti-6×His (ectopic)",
  "note": "Several values for one entry are separate records, joined by “and”; a condition that tells them apart may be missing. Identical values can stand only once.",
  "data": [
    {"protein": "B1", "values": [
      {"measurement": "stoichiometry N", "value": "2 and 6"}
    ]}
  ]
}
